Test: yeast display, Sf9 membrane polyspecificity reagent, FACS + sequencing; frameworks hold sequencing errors
Procedure, shortened: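 Genes from sorted yeast were amplified by colony PCR, read by MiSeq 2 × 250 sequencing and filtered on CDR length. These cells carried a synthetic nanobody library in Saccharomyces cerevisiae BJ5465 and were sorted by FACS into low and high (top ~1%) gates on anti-HA and streptavidin fluorescence. Polyreactivity is labelled according to the gate of origin.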
With “QVQLVESGGGIVQAGGSLRLSSAASGRIFPYYAMGWYRQSPGKERELVAAINWRGTRTYADSVKWRFTISRDNAKYTVYFQMTSLNPEDTAVYYCAARTLYFSKYDYWGLGTQVTVSS” the “polyreactivity (PSR sort gate)” value was “high polyreactivity”. With “QVQLVESGGGIVQAGGSLRLSSAASGRIFRYYAMGWYRQAPGKERQLVAAISGSGGITYYADSVKGRFTISRDNAKNTVYLQLNRLKPEDTAVYYCAARYGIRPSVSGGYWGQGTQVTVSS” the “polyreactivity (PSR sort gate)” value was “high polyreactivity”. In the case of “QVQLVESGGGIVQAGGSLRLTCAASGITFYKYDMGWYRQAPGKDRELVAAISFRGGNTNYADSVKGRFTISRDNAKNTVYLQMNILKPEDTAVYYCAAYSYTWFYEYGYWGQGTQVTVSS”, the “polyreactivity (PSR sort gate)” value is reported as “high polyreactivity”. For “QVQLVESGGGIVQAGGSLRLTCAASGRIFLANAMGWYRQAPGKERELVAAISLSGGRTYYADSLKGRFTISRDNAKNSVYFQRNSLKPEDTAVYYCAAEFYPIRYYGGYDYWGQGTQVTVSS”, the “polyreactivity (PSR sort gate)” value was “low polyreactivity”. With “QVQLVESGGGIVQAGGSLRVSCAASGTMGWYRQAPGKERELVAAISQSGGSTYYADSVKGRFTISRDNAKNTVYLQMNSLKPEDTAVYYCAVDPGYGHPRRDYWGQGTQVTVSS” the “polyreactivity (PSR sort gate)” value was “low polyreactivity”. For “QVQLVESGGGIVQAGGSLSLSCAASGNIFTAYAMGWYRQAPGKERELVATITSSGDSTYYADSVKGRFTISRDNAKNTVYLQMNRLKPEDTSVYYFATADPSASNEVYEYDYWGQGTQVTVSS”, the “polyreactivity (PSR sort gate)” value was “low polyreactivity”. For “QVQLVESGGGIVQAGGTLRLSCAASGIIFGSYAMGWYRQEPGKERELVAAINSSGGSTHYADSVKGRFTISRDNSKNTVYLQMNSLKPEDTAVYYCAADGYWRDYSGYWDYYYIYDYCGQGTQVTVSS”, the “polyreactivity (PSR sort gate)” value was “low polyreactivity”. With “QVQLVESGGGIVQAGGTLRLSCAPYGSNYYAMACYRQAPGKDRDFVAAITTRGGGTYYADSVKGRFTISRDNAQNTVYLQMFSLKPVDTAVYVCAAEDYRPRTYVYRYRYYYWGQGTQVTVSS” the “polyreactivity (PSR sort gate)” value was “high polyreactivity”. With “QVQLVESGGGIVQAGRSLRLSCAASGRTFHGYAMGWYRQAPGKERELVAAITGTGGRTYYAESVKGRFTISRDKAKNTVYLQMNSLKPEDTAVYYCAARPWIKSGYWGQGTQVTVSS” the “polyreactivity (PSR sort gate)” value was “high polyreactivity”. For “QVQLVESGGGIVQAGRSLRLSCPASGLIFGPYTMGWYRQAPGKERELVAAISRSGGITYYADSVKGRFTISRDNATNTVYLQMNSLKPEDTAVYYCAARLVRESEPLGYWGQGTQVTLSS”, the “polyreactivity (PSR sort gate)” value was “high polyreactivity”. For “QVQLVESGGGIVQAGVSLRLISAASGRIFRINAMGWYRQAPGKERDLVADITSGGSTNYADSVKGRFTISRDNAKITVYLQMNSLKPEDTAVYFCAPGYVTYRTRLDYWGQGTQVTVSS”, the “polyreactivity (PSR sort gate)” value was “low polyreactivity”. With “QVQLVESGGGIVQAGVSLRLSCAASGISYSPNVMGWYRQAPGKERELVASISSGGSTYYADSVNGRFTISRDNATNSVYLQMNSLKPEDTAVYYCAAEVDGYWTYYYWGQGTQVTVSS” the “polyreactivity (PSR sort gate)” value was “low polyreactivity”. In the case of “QVQLVESGGGIVQAVGSLRLSCAASGSTFRLYAMGWYRQAPGKERELVAAISSNGVRTYYADSVKGRFTISRDNAKNTVYLQINSLKPEDTAVYYCAARVYPAYPRGYDYWGQGTQVNVSS”, the “polyreactivity (PSR sort gate)” value is reported as “high polyreactivity”. With “QVQLVESGGGIVQEAGSLSLSCAASRLTFTTYNMGWSRPAPGKERELVAALSSRGGSTYYADSVKGRFTISRDNAKNTVYLEKNSLKPEDTAVDYCNAPRPHRMDWGQGTQVTVSS” the “polyreactivity (PSR sort gate)” value was “high polyreactivity”. In the case of “QVQLVESGGGIVQPGGRLRLSCAASGSILYGYAMGWYRQAPGKERELVAVITSGGSTNYADTVKGRFTISRDNAKNTVYLQMNSLKPEDTAVYYCAADPYSVYGGDYWGQGTQVTVSS”, the “polyreactivity (PSR sort gate)” value is reported as “low polyreactivity”. With “QVQLVESGGGIVQSGGSLGLSCAASGYTFRTNVMGWYRQAPGKERELVATINWRGGSTYYADSVKGRFTISRDTAKNTVYLQMNSLKPEDTAVYYCAKTYSYYRTMDYWGQGTQVTGSS” the “polyreactivity (PSR sort gate)” value was “low polyreactivity”. With “QVQLVESGGGKVQAGGSLRLICAASGSTFTYNTMGWYRQAPGKERELVAAISSGGSTYYADSVKGRFTISRDNAKNTVYLQLNSLNPVDTAVYYCAATAQKYSRYGSRYYYWGQGTQVTVSS” the “polyreactivity (PSR sort gate)” value was “high polyreactivity”. For “QVQLVESGGGLAQAGGSLRLSCAASGNIFRINGMGWYRQAPGKERELVASITRSGSTYYADSVKGRFTISRDNAKNTVYLQMNSLKPEDTAVYFCAADSRRYGVRFDYWGQGTQVTVSS”, the “polyreactivity (PSR sort gate)” value was “low polyreactivity”. With “QVQLVESGGGLAQAGGSLRLSCAASGRTFRRYAMGWYRQAPGKEREMVAAITSGGDTYYADSVKGRFTISRDNAKNTVYLQMNSLKPEDTAVYYCNAASVTRRTGIRAVDFDYWGQGTQVTVSS” the “polyreactivity (PSR sort gate)” value was “high polyreactivity”. For “QVQLVESGGGLDHAGGPLRLSCAASGTIFAYYNMGWYRQPPGKERELVAGISKRGGNTYYADSVKGRFTISRDNAKNTVYLQMNSLKPEDTAVYYCNKRYSANTRGYYYWGQGTQVTVSS”, the “polyreactivity (PSR sort gate)” value was “high polyreactivity”. For “QVQLVESGGGLDQAGGRLPLTWAASGFTFWKYAMGLYRQAPGKERELVAANSVSGGRTYYADSVKGRFTISRDNAKNTVSLQMNRLKPEDTAVYFCNATPWRPYVGGEYWGQGTQVTVSS”, the “polyreactivity (PSR sort gate)” value was “high polyreactivity”. In the case of “QVQLVESGGGLDQAGGRLRLSCAASGRTFIVFAMGWYRQAPGKESELVAGITRGSTNYADSVKGRFTISRDNAKNTVYLQMNSLKPEDTEVYYCATEVYIWPWGTVYAFEYDYWGQGTQVTVSS”, the “polyreactivity (PSR sort gate)” value is reported as “high polyreactivity”. In the case of “QVQLVESGGGLDQAGGRLRLSSAASGYTFRNYAKGLYRQATGQERELVAAITSSTSSTYYADSVKGRFTISRDNAKNTVYLQMNSLKPEDTAVYYCNRVWSPYMDYWGQGTQVTVSS”, the “polyreactivity (PSR sort gate)” value is reported as “high polyreactivity”. In the case of “QVQLVESGGGLDQAGGSLPLSCAASGSTFPGNAMGWYSQARGKERELVARINDGADTNYADSVKGRFTISRDNAKNTVYLQMNSLKPEDTAVYYCAADKRGTVYLSSFWMDYWGQGTQVTVSS”, the “polyreactivity (PSR sort gate)” value is reported as “low polyreactivity”. In the case of “QVQLVESGGGLDQAGGSLRLICAASGRIFDVNAMGWYRQAPGKERELVAAISDSGGSTYYADSVKGRFTISRDNAKNTVYLQMNSLKPEDTAVYYCNANTPSLKRSTFNYWGQGTQVTVSS”, the “polyreactivity (PSR sort gate)” value is reported as “low polyreactivity”. For “QVQLVESGGGLDQAGGSLRLICAASGSTFISNVMGWYRPAPGKERELVAAITRSSGRTYYADSVKGRFTISRDNAKNTVYLQMNSLKPEDTAVYYCAARPRGRGVDYWGQGTQVTVSS”, the “polyreactivity (PSR sort gate)” value was “high polyreactivity”. For “QVQLVESGGGLDQAGGSLRLICAASVRTFFVNAMGRYRQAPGKERELVATITFSGDSTYYADSVKGRFTISRDNAKNTVYLQMNSLKPADTAVYYCAAYQGQKGYDYWGQGTQVTVSS”, the “polyreactivity (PSR sort gate)” value was “high polyreactivity”. In the case of “QVQLVESGGGLDQAGGSLRLRCAASGIIFDYNGMGWYRQAPGKERELVAVISFSGSGTYYADSVKGRFTISRDNAKNTVYLHMNSLKPEDTAVYYCAADTGPYFEYEYWGQGTQVTVSS”, the “polyreactivity (PSR sort gate)” value is reported as “low polyreactivity”. For “QVQLVESGGGLDQAGGSLRLSCAAAGSIFDYYAMGSYRQAPGKERELVAAISWSGGSTYFADSVKGRFTISRDNAKNTVYLQMNSLKPEDTAVYYCAARGFWGQGTQVTVSS”, the “polyreactivity (PSR sort gate)” value was “low polyreactivity”. With “QVQLVESGGGLDQAGGSLRLSCAASASIFWGYDMGWYRQAPGKEREFVARISYSGGSTSYAESVKGRFTISRDNAKNTVYLQMNSLKPEDTAVYYCAADEGVFWWTYPYDSWGQGTQVTVSS” the “polyreactivity (PSR sort gate)” value was “low polyreactivity”.
